This note sets out measurements from patent US20260015631.

The data set relates to CyCAST TnsD (with TnsAB, TnsC) (Cyanothece sp. PCC 7425). Briefly: cell_activity. As to conditions: without TniQ; 0.0006% with TniQ; E. coli.

Substance pTarget with tRNA-Leu registered an activity of 0.008 % insertion.
